Entries after “also recorded” stand apart in the source; their conditions may differ.
Biological target: T1, wild-type HER2 receptor (Homo sapiens, UniProt P04626)
T1 construct: expressed in transfected cells
Assay: HER2 reporter cells (clone #1) transfected with wild-type HER2, 384-well plate
Assay type: cell-based
Protocol: Clone #1 is alternately referred to as the “HER2 reporter cells”. These cells were transiently transfected with the wild-type, constitutively active or kinase-dead forms of HER2 receptors in the 384-well format. After 24 hours, the transfected cells were treated with NRG1. The luciferase reporter activity of the transfected cells was measured by Nano-Glo® Luciferase Assay (Promega). […] The reporter activity of the transfected cells expressing the wild-type form of HER2 receptor was activated upon treatment with NRG1 (FIG. 25). When the cells were transfected with the constitutively active form of HER2 receptor, the reporter activity was activated in the absence of NRG1. However, no activation of reporter was detected when the cells were transfected with the kinase-dead form of HER2 receptor.
The HER2 reporter cells were first transfected with 100 ng of linear expression cassette of HER2. NRG1 was added to the cells 24 hours post-transfection. […] A robust reporter signal was detected even at 2.5 ng/ml of NRG1.
To further reduce the assay turnaround time, different stimulation methods were explored. The first method evaluated was Example 9d which was performed by addition of NRG1 to the cells 24 hours post-transfection for 4, 6 and 24 hours. […] The reporter activity was measured 24 hours post-transfection (FIG. 27A). […]

Substance: NRG1: neuregulin-1, HER3 receptor ligand
- reporter activation by ligand: activated; also recorded: dose-dependent response; also recorded: good dose response; also recorded: dose dependent manner
